According to a protein production outcome set (Wang et al. 2014):

Test: label from the status in PepcDB records

Sequence	protein production
MKHLVTTALAYTNGPLHLGHARSTYIPADIYTRYLRLKGEEVIHVGGTDNHGVPITLTAEREGVKPIDIVDRYHNAIKADLDSLNVSFDTFGRTHSDIHIETAQEFYSKLKENGYIYEKEIEQFYCEKCDMYLADRYVEGICPFCEGEARGDHCEVCGRHLEPTELVNPYCIHCNSKPEIKRTTHYFFKLSAMQDVLKEYIENSPEMPEHVKNMALRWIEELHDWDVSRNIKWGVPIPGCDDQVMYVWIEAPIGYVSFTKQLGDLWKDYWLENTGDSKISHFIGKDITVHHAVFWPGILKGIGGYKMPNAVVSGGYLTLENKKMSTSKNWVVWVKDFIENFSSDYLRYFFMINAPLNRDTDFSWDDFQKRINTELIDIIGNFTHRTLVFTERKFGSTPVVDLNQLKDEDKKLISKCEDTLNRVDSLIREYNFKDALMEIIHLAKEGNGYFQGMAPWAIKDEERLKEVMYTCSVALKYIVYLLSSFMPEKTALLLEYMNEELDLEVRGNPLKKPKVIFTKVSDEDISRMKENLMKATKKAETKSDEKSKKVKSGEKMDIIDIDYFGNIDLRVGQILEVEEVPRSKKLYKITADLGDEKRQIVSGLKGAYEAEELVGKKVIIICNLKPAKLCGVESQGMLLAAEDDSIVSLLALDRDLPVGSKIH	failed
MDNRTGEMEVFVSAAELQSFSAAGRRLKLSPSAVSKLVTRIEDRLGTRLLVRSTRMMTLTPEGEIYLARARRILADIADTEQIVAAGGKLVPRGLLRVNASVGFGERFLLPLIPAFLELYPEVQLDISLTDGIIGLIEERTDIAIRSGAMDDSSLKARKLLESRRVIIASPSYIKRHGMPQTPADLAAHNCFSFNFRRSLNEWPFRDPGSTEIYRLPVSGNSSVNSGMIMRRLCLAGSGLGRVGQFHVQPDIDAGTLVPVLEDYNPDDIEEIHAVFAGHEHLATRIRAFIDFLAEHVGKDRA	failed
MPNDTHAQTGASGPTTLFTNANVLTVDAEFSTAQAIAIRGNRILAVGSDAEVRAAAGDDATVVDLEGKTVLPGFIDAHAHAVSGSVVDAIMDYVGMARFTTVDEVLNHIATRAAKTPAGDWLVFRNFDPAVQEGADALTFAELDPISTDHPIFILNASGHLAYANSRAFEVSGLTNDVPNPPGGEFVRDADGNLTGTIKNNVAFLQIAENYPAMKQVNPVEGLLGLLGKWSQQGLTTVSELSLGALAQSPADVQVMAAAAQSGRMTARLRAYPFYTLGTETWDNAGVKQGDGNALARVAGYKLVADGSNQGFTGLQREPYLNREDRGLAYMEPDELTTTALERAGKGWHLAIHGNGDAAIDNILDTCQALADAGIDMARVRPRIEHCSILHDEQIARMKALGVSASFLIGHVHYWGVAMRDQVFGLEKAQLLDRCKSVEEAGVGFTLHSDFMVTDPNPLHMIEMAVTRRTWKEPDYVLAPQERISVDSAIRAMTSEAAWQLFSDHEIGSLEPGKLADMVILDQDPRKVAPDEIKAIKVLETWMDGQRVFAA	failed
MSELAASLLSRVILPRPGEPLDVRKLYLEESTTNARRAHAPTRTSLQIGAESEVSFATYFNAFPASYWRRWTTCKSVVLRVQVTGAGRVDVYRTKATGARIFVEGHDFTGTEDQPAAVETEVVLQPFEDGGWVWFDITTDTAVTLHSGGWYATSPAPGTANIAVGIPTFNRPADCVNALRELTADPLVDQVIGAVIVPDQGERKVRDHPDFPAAAARLGSRLSIHDQPNLGGSGGYSRVMYEALKNTDCQQILFMDDDIRLEPDSILRVLAMHRFAKAPMLVGGQMLNLQEPSHLHIMGEVVDRSIFMWTAAPHAEYDHDFAEYPLNDNNSRSKLLHRRIDVDYNGWWTCMIPRQVAEELGQPLPLFIKWDDADYGLRAAEHGYPTVTLPGAAIWHMAWSDKDDAIDWQAYFHLRNRLVVAAMHWDGPKAQVIGLVRSHLKATLKHLACLEYSTVAIQNKAIDDFLAGPEHIFSILESALPQVHRIRKSYPDAVVLPAASELPPPLHKNKAMKPPVNPLVIGYRLARGIMHNLTAANPQHHRRPEFNVPTQDARWFLLCTVDGATVTTADGCGVVYRQRDRAKMFALLWQSLRRQRQLLKRFEEMRRIYRDALPTLSSKQKWETALLPAANQEPEHG	failed
MVYPRMGRVPLPPKGAQHYTTMCQFCNVGCGYDVYVWPAGAEGSPEPGGHGIEYKIVDEAYGRNLVKQPDFTKEHTGLSAEEGEPWISEAMVVKTIRRTWERGRGTGGWREVYVAQVPSPECPINWGNHSVRGGTQAERIWSPWNIAGERRLTKPLVRFGGRLEPVSWEYAIDLVARVVKGVIDKWGIERPGWGKEGHAVFAHRMDHGGGGGGGMIFNTVVGLFFFYGVRTAFARIHNRPFFGPENPAAGDAGPGAMNTSYHDLRLADTIILWGNNPYSTATVMFVKHVLDNLRGATKAEKQRWFNPGEPVIDSRIIIVDPRRTETVEAAEAAAGKDRVLHLQVKPGTDIVLANAIARVIYERYGDVVEEFVNHYRSAAGWGFKWDEEGFQKYVSEALQVGEETLDEVLAEAESITGVPRDKIELAAKWIAERKEGGYPKRVWLMYEKGIIWNQNYRSIYSLFDLCMIAGATRGLPGCGCQRQGGHQEGFASPAPPPPPWTDERHHIAYPDKSLYDEYYNTKYPRADFYMPTTDFRLANGEGKVLWVIDMDNYRLAPNSQRLKAVVGDRAWRVTRYVFAEAYANVGGKESEPNYDPNALEPVITTPPSSREYAEKVLQALEETGGLFVIVEDIYPTFMVEDAHVVLPAAFNNGEWPDVRMGVHERRFRIADAWLDPPGEAKPDWWILANVAKRIVELYEEEGRGGDPVAERFRKAFKPIWDAMEANARDPTVEVENEIFKTYIANADEAYARLGVHWEVQYWTPEFKKLDLNILRKLRTIGTVLPITKLDVKPDGTIEVRGVVNIMEPALNDTYREEVVVVKPDGTIVRRIEVVPSNETVRSYVPGHLKPWPAVWDKYPPYVDELIRKGYKYWVVNGRYNAIWQTGYADPNVVEIMARHPMNIVQVNPEDAAKEGLENGDIVVIYNDYGSTTAMVWVTRVVAPGTIFLIMAHPKAVGANAVTTPSVDPAAQNPDYKLTLANLRKIGRADETIIKKVTFKDIRFAVR	failed
MSLTNSSKSFTKFMAASAVFTMGFLSVPTAGAEQTNQIANKPQAIQWHTNLTNERFTTIAHRGASGYAPEHTFQAYDKSHNELKASYIEIDLQRTKDGHLVAMHDETVNRTTNGHGKVEDYTLDELKQLDAGSWFNKKYPKYARASYKNAKVPTLDEILERYGPNANYYIETKSPDVYPGMEEQLLASLKKHHLLNNNKLKNGHVMIQSFSDESLKKIHRQNKHVPLVKLVDKGELQQFNDQRLKEIRSYAIGLGPDYTDLTEQNTHHLKDLGFIVHPYTVNEKADMLRLNKYGVDGVFTNFADKYKEVIKEGHHHHHH	not failed
MHLSLMISRHYINRMKLSLMHISILAGIPEEFKVNIYIGWLFKLIPLIMGLICIALGGFVLESSGQSEYFVAGHVLISLAAICLALFTTAFIIISQLTRGVNTFYNTLFPIIGYAGSIITMIWGWALLAGNDVMADEFVAGHVIFGVGMIAACVSTVAASSGHFLLIPKNAAGSKSDGTPVQAYSSLIGNCLIAVPVLLTLLGFIWSITLLRSADITPHYVAGHVLLGLTAICACLIGLVATIVHQTRNTFSTKEHWLWCYWVIFLGSITVLQGIYVLVSSDASARLAPGIILICLGMICYSIFSKVWLLALVWRRTCSLANRIPMIPVFTCLFCLFLASFLAEMAQTDMGYFIPSRVLVGLGAVCFTLFSIVSILEAGSAKK	failed
MESITQIYRIGYGPSSSHTIGPRRAAEMFLDRNPRATSFRVTLYGSLAATGKGHLTDAAILAVLEAKAPTEIVWKPEIFQNFHPNGMLFESFDKEGKQLDDWLIYSIGGGVLANEHFNEQ	not failed
MEAKLQVGVLGFGTVGSGVIHILEEHQEKISQVTGYHISVKKVLVRDLEKNRRYETKGFELTTNPSDVLDDPEIAVVVEVMGSITTAREYILQALKAGKHVVTANKDLIALHGDELVAVAQANNCDLFYEASVAGGIPILRTIVNSLAADKIQKVMGIVNGTTNFMLTKMTTEKKSYEEVLAEAQALGFAESDPTNDVDGIDAARKMVIMTRLAFGMNVNLDNVETSGIRGISPEDIEVAYQLGYKIKLVGTAEETNGTVNVNVGPVLLPKAHPLAGVNYENNAVFVTGAAVGETMFYGPGAGELPTATSVVSDLITVAKNSRLGTNGNAFNSYKHETKHTPKEQVFSKYYLRLTMDDKTGTFLKLTQIFAEAGVGFDKILQQPYDDFTATVVIVTHSTSQAQLEQAITRVKNEPEMQMLAKYSVVEG	not failed
MCARPCRPTNLPTRFSMSNSDPSPTLEGNYDLLFRFAFWLFVGAISFSVAGMLLLRLVPSSMAIFGPIYTKLVKTPTWTFMTLLALLPLLMYGPTLGWKKISLIAAWGCIIGGASELIGTTGWLNVGGIALPFGEYEYTQWLGPKIAGHVPYFIPPSWFAMSIVSLDLARRVTTQRVGSLLLGTLFMVLWDVSLDPAMNQAFPFWEYGVDGVFFGMPLSNWAGWAGVTFVILLGYEYIGKGAPIQNEWAPWVYALNCIFPLSICLLRDVYLPALIGGLATLVPFLLLWRYNPDSLKRSVSLFRG	failed
MCIQKVIEDKLSSALKPTFLELVDKSCGCGTSFDAVIVSNNFEDKKLLDRHRLVNTILKEELQNIHAFSMKCHTPLEYDKLKSK	not failed
MKWIEIYEKLVNIDTGPDLPLEGKLRRTSFLTEILEDLGFRVEKREAAYVAFRGKPPYVTLIGHLDTVFPEGESKRRPFTIEGNIAKGPGVCDMKGGVVILLESLKRFLQQNDTDLCVVLNVDEELGSPLSGEVFKEVAGMSSHCLSFEPGRENGELISSRKGIISLWLFARGKKGHASRLDEGANAIVELAFKVVELTSLNGRFPNLTLNPTIVKGGAESNVTPDKAEVYFDVRYYDDKEYEFLEETLKRLSAVHPEANVSYTLKLRRLPMKEDPDFVNIVKMSAEEIGMTVSFVRATGGGDVAFFSQNGVPSIDGLGIPGGKMHSEDEYARLDQFEDRVNLVVHLLRKLGGEKNVR	not failed
MPNHDYRELAAVFAGGALGALARAALSALAIPDPARWPWPTFTVNVVGAFLVGYFTTRLLERLPLSSYRRPLLGTGLCGGLTTFSTMQVETISMIEHGHWGLAAAYSVVSITLGLLAVHLATVLVRRVRIRR	failed
GMFGLVFNTRRATFADEKVREGLSYALDFEWLNRNILGGSFKRTQSYWQNSPLGAYGNAADERELALLGDAAKTMPAELLAGTYAMPTTDGTGADRKVLKLAVDKLKEAGYSIKNGKMSDANGRQLAFEIMTQNPAQERIALAYQRSLNLIGVAMGIRSVDDGQYQARSNSFDYDMIIRSLPSSLSPGMEQLNRWNSLSRDAQGSFNYAGVANPDIDRMIEALLQARSTEDFQAAVRAYDRLLVAGHYIIPLYYIG	failed
MEEKQPQKTKEPSKEDEPQQKEMPTHLSLGAESKAEAKTPVLVETQTVDNANEKSEKPPENQKKLSDKDTVATKIKAWWRGTLVRRALLHAALSACIIQCWWRLILSKILKKRRQAALEAFSRKEWAAVTLQSQARMWRIRRRYCQVLNAVRIIQAYWRCRSCASRGFIKGQYRVTANQLHLQLEILLDSGPCIVTECIPFSIKE	failed
MQVITSVKEAKQIVKDWKSHQLSIGYVPTMGFLHDGHLSLVKHAKTQDKVIVSIFVNPMQFGPNEDFSSYPRDLERDIKMCQDNGVDMVFIPDATQMYLKNFSTYVDMNTITDKLCGAKRPGHFRGVCTVLTKFFNILNPDIVYMGQKDAQQCVVVRHMVDDLNFDLKIQICPIIREEDGLAKSSRNVYLSKEERKASLAISQSIFLAEKLVREGEKNTSKIIQAMKDILEKEKLIKIDYIELVDFNTMENIENITDNVLGAVAAFVGKTRLIDNFLVQGLK	not failed
MAPEPLSAAGQNLIDTATSVINGIPVSDFYSVASAAISDDGRVFSGVNVYHFNGGPCAELVVLGVAAAAGATKLTHIVAIANEGRGILSPCGRCRQVLADLHPGIKAIVIGKEGPKMVAVEELLPSIYAWDKDYDRI	not failed
